In patent US20240190956A1 (IMMUNOGEN, published 2024):

What was measured:
CD123 = CD123 (UniProt P26951 19-378, limits assumed); experiment: cell-based or functional assay
[1] = biological target: T1, folate receptor alpha (FR-α) (human, UniProt P15328 25-234); experiment: FACS on T47D cells
T1 construct: whole, on cells; also called FOLR1; human folate receptor 1
Experimental: T47D cells were then resuspended in growth media (see above) to neutralize trypsin, and were counted on a Coulter counter. Cells were then washed twice in cold FACS buffer, centrifuging in between washes at 1200 rpm for 5 min.
About 100 μl/mL of 2×10⁴ cells/well were added to wells containing ADC, antibody or FACS buffer only, and incubated at 4° C. for 2 hr. After incubation, cells were centrifuged as before and washed once in 200 μL/well cold FACS buffer. Cells were then stained with 200 μL/well FITC-conjugated Goat Anti-Human-IgG-Fcγ secondary antibody (controls included were unstained cells and those stained with secondary antibody only) for 40 min at 4° C., centrifuged and washed once in 200 μL/well cold PBS-D. Cells were fixed in 200 μL/well 1% formaldehyde/PBS-D and stored at 4° C.
After storage, cellular surface staining of conjugate or antibody was detected using flow cytometry on a FACS Calibur (BD Biosciences). The geometric means were plotted against the log concentration of ADC or antibody using GraphPad Prism and the EC₅₀ was calculated via non-linear 4-parameter logistic regression analysis.

[2] = biological target: T1, folate receptor alpha (FR-α); experiment: cell-based or functional assay

T1 sequence (P15328 25-234): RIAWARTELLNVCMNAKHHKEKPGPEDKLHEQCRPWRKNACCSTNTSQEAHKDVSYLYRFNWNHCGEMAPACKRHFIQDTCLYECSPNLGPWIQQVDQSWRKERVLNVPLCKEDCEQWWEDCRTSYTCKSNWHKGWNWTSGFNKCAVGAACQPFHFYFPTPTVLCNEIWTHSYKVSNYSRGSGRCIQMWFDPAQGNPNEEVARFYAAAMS
CD123, sequence (P26951 19-378 limits assumed): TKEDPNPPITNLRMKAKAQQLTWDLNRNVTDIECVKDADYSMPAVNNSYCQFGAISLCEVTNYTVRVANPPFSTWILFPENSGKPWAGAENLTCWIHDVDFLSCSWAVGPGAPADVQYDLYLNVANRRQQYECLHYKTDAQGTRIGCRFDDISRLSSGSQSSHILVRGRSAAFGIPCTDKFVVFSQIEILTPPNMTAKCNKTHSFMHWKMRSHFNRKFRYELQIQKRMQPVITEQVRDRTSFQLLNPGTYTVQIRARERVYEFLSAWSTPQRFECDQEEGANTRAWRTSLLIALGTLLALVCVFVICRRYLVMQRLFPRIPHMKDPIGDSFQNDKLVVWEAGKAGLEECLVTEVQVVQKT

B1: huCD123-6Rv1.1S2-SeriMab-D8 (antibody, V domains shown)
VH: SFQLVQSGAEVVKPGASVKMSCKASGYTFTSSIMHWMKQKPGQGLEWIGYIKPYNDGTKYNQKFQGKATLTSDKSSSTANMELNSLTSEDSAVYYCAREGGNDYYDTMDYWGQGTSVTVSS
VL: DIQMTQSPSSMSASVGERVTITCRASQDINSYLSWFQQKPGKSPKTLIYRVNRLVDGVPSRFSGSGSGQDYSLTISSLEPEDMGIYYCLQYDAFPYTFGQGTKLEIKR
CD123
  IC50 of cytotoxicity on HNT-34 cells (WST-8): ~0.002 nM
  IC50 of cytotoxicity on MOLM-1 cells (WST-8): ~0.03 nM
  IC50 of cytotoxicity on SHI-1 cells (WST-8): ~0.01 nM
  loss of cytotoxicity when CD123 is blocked by unconjugated huCD123-6 antibody: 100 fold

B2: huMOV19-NTS #2 (antibody)
heavy: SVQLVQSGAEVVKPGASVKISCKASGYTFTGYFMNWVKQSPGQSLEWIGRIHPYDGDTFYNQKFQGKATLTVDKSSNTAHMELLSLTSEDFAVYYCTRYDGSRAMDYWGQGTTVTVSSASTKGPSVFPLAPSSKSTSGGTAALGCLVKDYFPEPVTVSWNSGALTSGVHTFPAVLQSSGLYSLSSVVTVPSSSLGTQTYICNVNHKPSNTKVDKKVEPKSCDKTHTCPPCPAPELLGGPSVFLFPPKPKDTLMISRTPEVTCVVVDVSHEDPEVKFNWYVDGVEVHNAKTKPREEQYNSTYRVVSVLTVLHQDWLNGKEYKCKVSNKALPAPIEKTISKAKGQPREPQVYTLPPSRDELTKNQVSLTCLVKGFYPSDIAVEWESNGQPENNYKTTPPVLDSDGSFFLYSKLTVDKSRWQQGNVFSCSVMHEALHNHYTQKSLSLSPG
light: DIVLTQSPLSLAVSLGQPAIISCKASQSVSFAGTSLMHWYHQKPGQQPRLLIYRASNLEAGVPDRFSGSGSKTDFTLTISPVEAEDAATYYCQQSREYPYTFGGGTKLEIKRTVAAPSVFIFPPSDEQLKSGTASVVCLLNNFYPREAKVQWKVDNALQSGNSQESVTEQDSKDSTYSLSSTLTLSKADYEKHKVYACEVTHQGLSSPVTKSFNRGEC
notes: huMOV19 with the heavy chain N-terminal Gln replaced by Ser (huMov19 HC NTS2); also called SeriMab; huMOV19-SeriMab antibody
[1]
  binding result: binds

B3: huMOV19 (antibody, human IgG1, kappa)
heavy: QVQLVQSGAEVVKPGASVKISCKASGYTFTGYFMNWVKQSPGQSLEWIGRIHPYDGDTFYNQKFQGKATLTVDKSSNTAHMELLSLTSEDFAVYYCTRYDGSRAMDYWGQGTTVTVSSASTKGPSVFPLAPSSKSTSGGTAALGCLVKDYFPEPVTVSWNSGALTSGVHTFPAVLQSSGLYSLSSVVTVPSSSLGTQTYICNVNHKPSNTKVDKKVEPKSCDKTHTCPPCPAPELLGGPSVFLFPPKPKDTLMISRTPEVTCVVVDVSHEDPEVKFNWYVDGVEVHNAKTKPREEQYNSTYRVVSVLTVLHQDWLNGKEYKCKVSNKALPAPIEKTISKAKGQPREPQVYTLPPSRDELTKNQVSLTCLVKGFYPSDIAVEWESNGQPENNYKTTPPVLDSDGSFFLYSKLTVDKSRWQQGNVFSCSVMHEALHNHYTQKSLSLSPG
light: DIVLTQSPLSLAVSLGQPAIISCKASQSVSFAGTSLMHWYHQKPGQQPRLLIYRASNLEAGVPDRFSGSGSKTDFTLTISPVEAEDAATYYCQQSREYPYTFGGGTKLEIKRTVAAPSVFIFPPSDEQLKSGTASVVCLLNNFYPREAKVQWKVDNALQSGNSQESVTEQDSKDSTYSLSSTLTLSKADYEKHKVYACEVTHQGLSSPVTKSFNRGEC
notes: Humanized anti-folate receptor alpha IgG1/kappa; also called M9346A; unconjugated native huMOV19 antibody
[1]
  binding result: binds

B4: huMOV19-NTS #2-Linker1-Compound A (antibody)
heavy: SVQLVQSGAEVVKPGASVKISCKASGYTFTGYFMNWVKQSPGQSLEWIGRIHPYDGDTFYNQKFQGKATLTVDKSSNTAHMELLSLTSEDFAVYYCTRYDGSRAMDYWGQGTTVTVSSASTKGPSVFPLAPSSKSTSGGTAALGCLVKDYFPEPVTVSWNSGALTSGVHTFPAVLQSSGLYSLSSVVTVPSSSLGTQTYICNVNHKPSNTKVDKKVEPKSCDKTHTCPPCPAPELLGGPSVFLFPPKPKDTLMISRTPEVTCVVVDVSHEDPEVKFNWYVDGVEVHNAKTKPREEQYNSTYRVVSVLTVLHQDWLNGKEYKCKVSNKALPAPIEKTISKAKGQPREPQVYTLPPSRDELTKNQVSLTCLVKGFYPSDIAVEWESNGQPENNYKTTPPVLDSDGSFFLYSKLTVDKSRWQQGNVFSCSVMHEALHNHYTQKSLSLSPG
light: DIVLTQSPLSLAVSLGQPAIISCKASQSVSFAGTSLMHWYHQKPGQQPRLLIYRASNLEAGVPDRFSGSGSKTDFTLTISPVEAEDAATYYCQQSREYPYTFGGGTKLEIKRTVAAPSVFIFPPSDEQLKSGTASVVCLLNNFYPREAKVQWKVDNALQSGNSQESVTEQDSKDSTYSLSSTLTLSKADYEKHKVYACEVTHQGLSSPVTKSFNRGEC
modifications: N-terminal Ser oxidized to an aldehyde and linked through Linker1 to Compound A (sulfonated DGN462); two Compound A molecules per antibody
[2]
  cytotoxicity on KB cells (WST-8), potency against the lysine-conjugated ADC, by Compound A concentration: ~5 fold
  cytotoxicity on KB cells (WST-8), potency against the lysine-conjugated ADC, by antibody concentration: ~3 fold
